Test results from article doi:10.1101/2021.10.18.464900 (bioRxiv, 2021).

What was measured:
[1] = target: T1, SARS-CoV-2 S protein trimer (Trimer) (SARS-CoV-2, Wuhan/reference, stabilised); assay: cryo-EM structure
[2] = target: T1, SARS-CoV-2 S protein trimer (Trimer); assay: SPR
[3] = target: T2, soluble RBD of SARS-CoV-2 S protein (REF / Wuhan-1 variant) (SARS-CoV-2, UniProt P0DTC2); assay: SPR
[4] = target: T2, soluble RBD of SARS-CoV-2 S protein …; assay: ELISA
[5] = target: RBD of SARS-CoV-2 S protein, Alpha (UK) variant (SARS-CoV-2, Alpha (B.1.1.7, UK) variant, strain); assay: ELISA
[6] = target: RBD of SARS-CoV-2 S protein, Beta (SA) variant (SARS-CoV-2, Beta (B.1.351, SA), strain); assay: ELISA
[7] = target: RBD (Wuhan) expressed on the surface of HEK-293T cells (SARS-CoV-2, Wuhan, UniProt P0DTC2); assay: flow cytometry on cells

B1: IMM20184 Fab (Fab, V domains shown)
VH: EVQLVESGGGLVQPGGSLRLSCSASGFTFSSFWMSWVRQAPGKGLEWVATIREDGSEKYYVDSVKGRFSISRDNAKNSLYLQMNSLRAEDTAVYYCARSKWLRGSFDYWGQGTLVTVSS
VL: NFMLTQPHSVSESPGKTVTISCTRRSGSIASNYVQWYQQRPGSAPTTVIYEDNQRPSGVPDRFSGSIDSSSNSASLTISGLQTEDEADYYCQSYDSSNPPGASWVFGGGTKLTVL
- stoichiometry N [1]: 3 Fab:Trimer

B2: IMM20184 (antibody, V domains shown)
VH: EVQLVESGGGLVQPGGSLRLSCSASGFTFSSFWMSWVRQAPGKGLEWVATIREDGSEKYYVDSVKGRFSISRDNAKNSLYLQMNSLRAEDTAVYYCARSKWLRGSFDYWGQGTLVTVSS
VL: NFMLTQPHSVSESPGKTVTISCTRRSGSIASNYVQWYQQRPGSAPTTVIYEDNQRPSGVPDRFSGSIDSSSNSASLTISGLQTEDEADYYCQSYDSSNPPGASWVFGGGTKLTVL
- koff [2]: 0.00023 s⁻¹
- kon [2]: > 29500 M⁻¹ s⁻¹
- fold faster on-rate to RBD than to Trimer [3]: 17 fold
- koff [3]: 0.0013 s⁻¹

B3: IMM20253 (antibody, V domains shown)
VH: QVQLVESGGGVVQPGRSLRLSCTASGFTFSTYGMHWVRQAPGKGLEWVAVISYDGSSKHYAESVKGRFTISRDNSNNTLYLQMNRLRAEDTAVYYCARDGQPPGWGNYFDYWGQGTLVTVAS
VL: SYVLTQPPSVSVAPGKTARITCGGNGIGSKSVYWYQQKPGQAPEVVVYDDSDRPSGIPERFSGSNSGNTATLTISRVEAGDEADYYCQVWDSSSDPWVFGGGTKLTVL
- kon [2]: > 29500 M⁻¹ s⁻¹
- fold faster on-rate to RBD than to Trimer [3]: 19 fold
- percent inhibition of ACE2 binding [4]: ≤ 40%
- percent inhibition of ACE2 binding [5]: ≤ 40%
- percent inhibition of ACE2 binding [6]: ≤ 40%

B4: IMM20253 Fab (Fab, V domains shown)
VH: QVQLVESGGGVVQPGRSLRLSCTASGFTFSTYGMHWVRQAPGKGLEWVAVISYDGSSKHYAESVKGRFTISRDNSNNTLYLQMNRLRAEDTAVYYCARDGQPPGWGNYFDYWGQGTLVTVAS
VL: SYVLTQPPSVSVAPGKTARITCGGNGIGSKSVYWYQQKPGQAPEVVVYDDSDRPSGIPERFSGSNSGNTATLTISRVEAGDEADYYCQVWDSSSDPWVFGGGTKLTVL
- stoichiometry N [1]: 1 Fab:Trimer

B5: IMM20190 (antibody, V domains shown)
VH: EVQLVESGGGLVQPGGSLRLSCSASGFTVSSNYMSWVRQAPRKGLEWVSVIYAGGSTFYADSVKGRFTISRDNSKNTLLLQMNSLRAEDTAVYYCARDRGGYLDYWGQGTLVTVSS
VL: DIQMTQSPSSLSASVGDRVTITCRASQGISNYLAWYQQKPGKVPKLLIYAASTLQSGVPSRFSGSGSGTDFTLTISSLQPEDVATYYCQKYNSAPGLTFGGGTKVEIK
- kon [2]: > 29500 M⁻¹ s⁻¹
- binding result [3]: binds
- binding result [7]: binds

B6: IMM20190 Fab (Fab, V domains shown)
VH: EVQLVESGGGLVQPGGSLRLSCSASGFTVSSNYMSWVRQAPRKGLEWVSVIYAGGSTFYADSVKGRFTISRDNSKNTLLLQMNSLRAEDTAVYYCARDRGGYLDYWGQGTLVTVSS
VL: DIQMTQSPSSLSASVGDRVTITCRASQGISNYLAWYQQKPGKVPKLLIYAASTLQSGVPSRFSGSGSGTDFTLTISSLQPEDVATYYCQKYNSAPGLTFGGGTKVEIK
- stoichiometry N [1]: 3 Fab:Trimer
